This note sets out measurements from patent US20190233493A1 (Sanofi, published 2019).

*1 amine or outer side, *2 acyl side, *3 side chain or, on linkers, in order; H or OH if unused. Side-chain parts run from the residue outwards. [ ]: non-standard residue; d: D form. The star is where a group is joined. PEG12 = NCCOCCOCCOCCOCCOCCOCCOCCOCCOCCOCCOCCOCCC(=O)O; γGlu = O=C(O)[C@H](CCC(=O)[*:2])N[*:1]; Stearoyl = CCCCCCCCCCCCCCCCCC(=O)*; Nle = CCCC[C@H](N)C(=O)O; Aib = CC(C)(N)C(=O)O

The chains are these.
T1: RXFP1 receptor (UniProt Q9HBX9 1-757, limits assumed)
T1 sequence (looked up): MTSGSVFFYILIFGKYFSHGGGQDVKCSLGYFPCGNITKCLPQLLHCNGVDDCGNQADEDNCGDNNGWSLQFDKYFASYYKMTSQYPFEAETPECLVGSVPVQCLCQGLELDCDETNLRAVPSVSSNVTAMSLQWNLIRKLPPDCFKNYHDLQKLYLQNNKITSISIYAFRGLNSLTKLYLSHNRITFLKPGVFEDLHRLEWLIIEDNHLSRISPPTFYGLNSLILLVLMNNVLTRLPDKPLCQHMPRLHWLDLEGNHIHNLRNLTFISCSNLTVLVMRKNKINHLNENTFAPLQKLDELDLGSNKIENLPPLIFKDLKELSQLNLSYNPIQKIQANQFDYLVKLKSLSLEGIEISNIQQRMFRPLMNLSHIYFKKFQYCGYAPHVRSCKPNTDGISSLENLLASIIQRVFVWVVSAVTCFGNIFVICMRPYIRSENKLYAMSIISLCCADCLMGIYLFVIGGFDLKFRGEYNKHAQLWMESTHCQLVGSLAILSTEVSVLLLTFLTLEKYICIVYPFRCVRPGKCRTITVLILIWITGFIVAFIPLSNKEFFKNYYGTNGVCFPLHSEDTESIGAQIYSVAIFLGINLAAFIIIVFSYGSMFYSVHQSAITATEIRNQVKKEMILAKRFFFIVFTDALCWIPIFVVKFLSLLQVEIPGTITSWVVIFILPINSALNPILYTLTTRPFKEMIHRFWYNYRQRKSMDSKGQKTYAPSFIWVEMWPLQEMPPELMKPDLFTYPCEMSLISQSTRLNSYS

B1: peptide of SEQ ID NO: 31 (peptide)
peptide: Ac-LEGREKVRAQI[Aib][Aib]EG[Nle]STWS[Aib]RKK[PEG12]K([γGlu-γGlu-γGlu-Stearoyl])-NH2
SMILES: CCCCCCCCCCCCCCCCCC(=O)N[C@@H](CCC(=O)N[C@@H](CCC(=O)N[C@@H](CCC(=O)NCCCC[C@H](NC(=O)CCOCCOCCOCCOCCOCCOCCOCCOCCOCCOCCOCCOCCNC(=O)[C@H](CCCCN)NC(=O)[C@H](CCCCN)NC(=O)[C@H](CCCNC(=N)N)NC(=O)C(C)(C)NC(=O)[C@H](CO)NC(=O)[C@H](Cc1c[nH]c2ccccc12)NC(=O)[C@@H](NC(=O)[C@H](CO)NC(=O)[C@H](CCCC)NC(=O)CNC(=O)[C@H](CCC(=O)O)NC(=O)C(C)(C)NC(=O)C(C)(C)NC(=O)[C@@H](NC(=O)[C@H](CCC(N)=O)NC(=O)[C@H](C)NC(=O)[C@H](CCCNC(=N)N)NC(=O)[C@@H](NC(=O)[C@H](CCCCN)NC(=O)[C@H](CCC(=O)O)NC(=O)[C@H](CCCNC(=N)N)NC(=O)CNC(=O)[C@H](CCC(=O)O)NC(=O)[C@H](CC(C)C)NC(C)=O)C(C)C)[C@@H](C)CC)[C@@H](C)O)C(N)=O)C(=O)O)C(=O)O)C(=O)O
B2: peptide of SEQ ID NO: 33 (peptide)
peptide: Ac-LEGREKVRAK(Ac)I[Aib][Aib]EG[Nle]STWS[Aib]RKK(Ac)[PEG12]K([γGlu-γGlu-γGlu-Stearoyl])-NH2
SMILES: CCCCCCCCCCCCCCCCCC(=O)N[C@@H](CCC(=O)N[C@@H](CCC(=O)N[C@@H](CCC(=O)NCCCC[C@H](NC(=O)CCOCCOCCOCCOCCOCCOCCOCCOCCOCCOCCOCCOCCNC(=O)[C@H](CCCCNC(C)=O)NC(=O)[C@H](CCCCN)NC(=O)[C@H](CCCNC(=N)N)NC(=O)C(C)(C)NC(=O)[C@H](CO)NC(=O)[C@H](Cc1c[nH]c2ccccc12)NC(=O)[C@@H](NC(=O)[C@H](CO)NC(=O)[C@H](CCCC)NC(=O)CNC(=O)[C@H](CCC(=O)O)NC(=O)C(C)(C)NC(=O)C(C)(C)NC(=O)[C@@H](NC(=O)[C@H](CCCCNC(C)=O)NC(=O)[C@H](C)NC(=O)[C@H](CCCNC(=N)N)NC(=O)[C@@H](NC(=O)[C@H](CCCCN)NC(=O)[C@H](CCC(=O)O)NC(=O)[C@H](CCCNC(=N)N)NC(=O)CNC(=O)[C@H](CCC(=O)O)NC(=O)[C@H](CC(C)C)NC(C)=O)C(C)C)[C@@H](C)CC)[C@@H](C)O)C(N)=O)C(=O)O)C(=O)O)C(=O)O
B3: peptide of SEQ ID NO: 32 (peptide)
peptide: Ac-LEGREKVRAK(Ac)I[Aib][Aib]EG[Nle]STWS[Aib]RKK[PEG12]K([γGlu-γGlu-γGlu-Stearoyl])-NH2
SMILES: CCCCCCCCCCCCCCCCCC(=O)N[C@@H](CCC(=O)N[C@@H](CCC(=O)N[C@@H](CCC(=O)NCCCC[C@H](NC(=O)CCOCCOCCOCCOCCOCCOCCOCCOCCOCCOCCOCCOCCNC(=O)[C@H](CCCCN)NC(=O)[C@H](CCCCN)NC(=O)[C@H](CCCNC(=N)N)NC(=O)C(C)(C)NC(=O)[C@H](CO)NC(=O)[C@H](Cc1c[nH]c2ccccc12)NC(=O)[C@@H](NC(=O)[C@H](CO)NC(=O)[C@H](CCCC)NC(=O)CNC(=O)[C@H](CCC(=O)O)NC(=O)C(C)(C)NC(=O)C(C)(C)NC(=O)[C@@H](NC(=O)[C@H](CCCCNC(C)=O)NC(=O)[C@H](C)NC(=O)[C@H](CCCNC(=N)N)NC(=O)[C@@H](NC(=O)[C@H](CCCCN)NC(=O)[C@H](CCC(=O)O)NC(=O)[C@H](CCCNC(=N)N)NC(=O)CNC(=O)[C@H](CCC(=O)O)NC(=O)[C@H](CC(C)C)NC(C)=O)C(C)C)[C@@H](C)CC)[C@@H](C)O)C(N)=O)C(=O)O)C(=O)O)C(=O)O

The target of the experiment is T1, RXFP1 receptor. The experiment in a line: cell-based or functional assay.
Regarding B1, the “EC50 (nM), OVCAR 5 cells (cAMP)” value is 0.71 nM and the “EMax, OVCAR 5 cells (cAMP)” value turned out to be 86%.
Consider Ac-LEGREKVRAK(Ac)I[Aib][Aib]EG[Nle]STWS[Aib]RK[PEG12]K([γGlu-γGlu-γGlu-Stearoyl])-NH2 [peptide of SEQ ID NO: 34], for which the “EC50 (nM), OVCAR 5 cells (cAMP)” value was found to be 4.73 nM and the “EMax, OVCAR 5 cells (cAMP)” value came out at 95%.
For B2, the “EC50 (nM), OVCAR 5 cells (cAMP)” value amounted to 0.61 nM and the “EMax, OVCAR 5 cells (cAMP)” value turned out to be 100%.
For the molecule B3, the “EC50 (nM), OVCAR 5 cells (cAMP)” value was 1.04 nM and the “EMax, OVCAR 5 cells (cAMP)” value was determined as 96%.
